T1: AnkG ANK repeats (residues 38-855, R1-24) (UniProt O70511 38-855)
T1 chain: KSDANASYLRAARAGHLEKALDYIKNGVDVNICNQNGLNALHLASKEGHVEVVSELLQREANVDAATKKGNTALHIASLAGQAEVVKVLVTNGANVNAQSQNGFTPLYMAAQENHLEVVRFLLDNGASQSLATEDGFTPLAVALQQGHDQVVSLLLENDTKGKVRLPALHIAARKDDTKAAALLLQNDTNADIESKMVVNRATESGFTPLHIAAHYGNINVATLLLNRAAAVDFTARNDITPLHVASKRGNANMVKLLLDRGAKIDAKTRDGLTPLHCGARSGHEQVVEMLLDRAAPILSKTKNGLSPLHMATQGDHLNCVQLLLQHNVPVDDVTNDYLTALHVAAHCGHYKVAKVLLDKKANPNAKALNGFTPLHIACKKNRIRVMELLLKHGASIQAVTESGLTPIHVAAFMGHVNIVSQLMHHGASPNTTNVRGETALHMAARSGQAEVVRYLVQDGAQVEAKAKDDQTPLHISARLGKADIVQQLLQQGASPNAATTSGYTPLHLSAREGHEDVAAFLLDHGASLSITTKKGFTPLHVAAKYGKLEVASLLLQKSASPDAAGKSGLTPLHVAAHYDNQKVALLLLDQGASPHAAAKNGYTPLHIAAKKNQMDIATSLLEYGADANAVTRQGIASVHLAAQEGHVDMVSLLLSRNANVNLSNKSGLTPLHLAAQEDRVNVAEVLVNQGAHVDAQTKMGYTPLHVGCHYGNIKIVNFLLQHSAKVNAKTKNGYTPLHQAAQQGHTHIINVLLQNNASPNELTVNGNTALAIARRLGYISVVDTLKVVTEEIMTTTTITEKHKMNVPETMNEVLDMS

T2: AnkG ANK repeats (residues 38-855, R1-24) (UniProt O70511 38-855)
T2 construct: Ankyrin-G (AnkG), ANK repeats R1-24, residues 38-855; In human Q12955 the same residues seem to stand 8 lower (I277 here = I269 there); Cloned into a modified pET32a vector; the tag is said to be removed only for the crystallisation proteins; also called AnkG R1-24; Ankyrin-G ankyrin repeats; source: E. coli BL21 (DE3), purified (Ni-NTA, size-exclusion chromatography)
T2 sequence (looked up): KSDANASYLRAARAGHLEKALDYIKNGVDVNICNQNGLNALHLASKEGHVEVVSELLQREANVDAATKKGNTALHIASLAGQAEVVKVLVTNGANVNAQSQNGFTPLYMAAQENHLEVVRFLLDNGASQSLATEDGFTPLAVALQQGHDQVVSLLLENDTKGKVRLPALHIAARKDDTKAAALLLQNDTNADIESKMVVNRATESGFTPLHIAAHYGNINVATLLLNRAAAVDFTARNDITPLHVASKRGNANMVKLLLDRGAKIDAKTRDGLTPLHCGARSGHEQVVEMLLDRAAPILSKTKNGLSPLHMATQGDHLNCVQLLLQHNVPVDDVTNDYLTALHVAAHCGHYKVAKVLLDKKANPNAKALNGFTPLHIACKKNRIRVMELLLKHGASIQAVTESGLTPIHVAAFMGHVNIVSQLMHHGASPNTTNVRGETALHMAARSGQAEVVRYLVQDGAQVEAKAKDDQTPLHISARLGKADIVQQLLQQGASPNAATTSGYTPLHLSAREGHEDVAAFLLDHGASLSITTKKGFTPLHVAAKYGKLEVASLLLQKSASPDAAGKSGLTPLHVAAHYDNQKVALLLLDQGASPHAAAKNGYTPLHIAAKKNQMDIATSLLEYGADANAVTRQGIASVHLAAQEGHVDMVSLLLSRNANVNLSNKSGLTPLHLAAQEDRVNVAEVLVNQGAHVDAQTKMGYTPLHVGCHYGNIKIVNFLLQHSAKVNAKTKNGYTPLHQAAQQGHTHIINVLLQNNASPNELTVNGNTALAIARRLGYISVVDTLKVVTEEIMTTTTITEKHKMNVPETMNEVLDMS


Target: T1, AnkG ANK repeats (residues 38-855, …)
Experiment: ITC
Settings: not given

Binder | Kd
GEGQFNEDGSQIGQYTV (domain or fragment) [Nfasc 1198 to 1214 F1208Q] | 1400 nM
GEGQFNADGSFIGQYTV (domain or fragment, UniProt P97685 1198-1214, looked up, source: E. coli BL21 (DE3), purified (Ni-NTA, size-exclusion chromatography)) [Nfasc 1198 to 1214 E1204A] | 9200 nM
GEGQQNEDGSFIGQYTV (domain or fragment, UniProt P97685 1198-1214, looked up, source: E. coli BL21 (DE3), purified (Ni-NTA, size-exclusion chromatography)) [Nfasc 1198 to 1214 F1202Q] | 7100 nM
GEGQFNEKGSFIGQYTV (domain or fragment) [Nfasc 1198 to 1214 D1205K] | 7700 nM
GEGQFNEDGSFQGQYTV (domain or fragment) [Nfasc 1198 to 1214 I1209Q] | 1000 nM
GEGQFNEAGSFIGQYTV (domain or fragment) [Nfasc 1198 to 1214 D1205A] | 1300 nM

Now from value to binder:

Kd | Binder
3200 nM | GEGQFNEDGSFIGQETV (domain or fragment, UniProt P97685 1198-1214, looked up, also called Y1212E phosphorylation mimic variant; source: E. coli BL21 (DE3), purified (Ni-NTA, size-exclusion chromatography)) [Nfasc 1198 to 1214 Y1212E]
460 nM | GEGQFNEDGSFIGQYAV [Nfasc 1198-1214 T1213A]
260 nM | GEGQFAEDGSFIGQYTV [Nfasc 1198-1214 N1203A]
1200 nM | GEGQFNEDGAFIGQYTV [Nfasc 1198-1214 S1207A]

target: T2, AnkG ANK repeats (residues 38-855, …); experiment: ITC; VP-ITC at 25 °C; 50 mM Tris, 100 mM NaCl, 1 mM EDTA, 1 mM DTT, pH 7.8; Nfasc proteins (200 μM) in the syringe, AnkG proteins (20 μM) in the cell; one-site binding model; settings: both partners purified

fold decrease in binding affinity against Nfasc 1198 to 1214 WT | fold decrease in binding against Nfasc 1198 to 1214 WT | Binder
~27 fold |  | GEGQFNADGSFIGQYTV (domain or fragment, UniProt P97685 1198-1214, looked up, source: E. coli BL21 (DE3), purified (Ni-NTA, size-exclusion chromatography)) [Nfasc 1198 to 1214 E1204A]
 | > 20 fold | GEGQQNEDGSFIGQYTV (domain or fragment, UniProt P97685 1198-1214, looked up, source: E. coli BL21 (DE3), purified (Ni-NTA, size-exclusion chromatography)) [Nfasc 1198 to 1214 F1202Q]
 | ~9 fold | GEGQFNEDGSFIGQETV (domain or fragment, UniProt P97685 1198-1214, looked up, also called Y1212E phosphorylation mimic variant; source: E. coli BL21 (DE3), purified (Ni-NTA, size-exclusion chromatography)) [Nfasc 1198 to 1214 Y1212E]

Target: T1, AnkG ANK repeats (residues 38-855, …)
Experiment: ITC
Settings: not given
Remark: another data set of the same source

Kd | Binder
930 nM | full-length Nfasc cytoplasmic tail (residues 1132-1240) (domain or fragment) KRSRGGKYPVREKKDVPLGPEDPKEEDGSFDYSDEDNKPLQGSQTSLDGTIKQQESDDSLVDYGEGGEGQFNEDGSFIGQYTVRKDKEETEGNESSEATSPVNAIYSLA
340 nM | GEGQFNEDGSFIGQYTV (domain or fragment) [Nfasc 1198 to 1214 WT]

Target: T1, AnkG ANK repeats (residues 38-855, …)
Experiment: ITC
Settings: not given
Remark: another data set of the same source

Kd | Binder
900 nM | CHL1 (domain or fragment) IEIPSSVQQVPTIIKQSKVQVAFPFDEYFQIECEAKGNPEPTFSWTKDGNPFYFTDHRIIPSNNSGTFRIPNEGHISHFQGKYRCFASNKLGIAMSEEIEFIVPSVPKFPKEKIDPLEVEEGDPIVLPCNPPKGLPPLHIYWMNIELEHIEQDERVYMSQKGDLYFANVEEKDSRNDYCCFAAFPRLRTIVQKMPMKLTVNSSNSIKQRKPKLLLPPTESGSESSITILKGEILLLECFAEGLPTPQVDWNKIGGDLPKGRETKENYGKTLKIENVSYQDKGNYRCTASNFLGTATHDFHVIVEEPPRWTKKPQSAVYSTGSNGILLCEAEGEPQPTIKWRVNGSPVDNHPFAGDVVFPREISFTNLQPNHTAVYQCEASNVHGTILANANIDVVDVRPLIQTKDGENYATVVGYSAFLHCEFFASPEAVVSWQKVEEVKPLEGRRYHIYENGTLQINRTTEEDAGSYSCWVENAIGKTAVTANLDIRNATKLRVSPKNPRIPKLHMLELHCESKCDSHLKHSLKLSWSKDGEAFEINGTEDGRIIIDGANLTISNVTLEDQGIYCCSAHTALDSAADITQVTVLDVPDPPENLHLSERQNRSVRLTWEAGADHNSNISEYIVEFEGNKEEPGRWEELTRVQGKKTTVILPLAPFVRYQFRVIAVNEVGRSQPSQPSDHHETPPAAPDRNPQNIRVQASQPKEMIIKWEPLKSMEQNGPGLEYRVTWKPQGAPVEWEEETVTNHTLRVMTPAVYAPYDVKVQAINQLGSGPDPQSVTLYSGEDYPDTAPVIHGVDVINSTLVKVTWSTVPKDRVHGRLKGYQINWWKTKSLLDGRTHPKEVNILRFSGQRNSGMVPSLDAFSEFHLTVLAYNSKGAGPESEPYIFQTPEGVPEQPTFLKVIKVDKDTATLSWGLPKKLNGNLTGYLLQYQIINDTYEIGELNDINITTPSKPSWHLSNLNATTKYKFYLRACTSQGCGKPITEESSTLGEGSKGIGKISGVNLTQKTHPIEVFEPGAEHIVRLMTKNWGDNDSIFQDVIETRGREYAGLYDDISTQGWFIGLMCAIALLTLLLLTVCFVKRNRGGKYSVKEKEDLHPDPEIQSVKDETFGEYSDSDEKPLKGSLRSLNRDMQPTESADSLVEYGEGDHGLFSEDGSFIGAYAGSKEKGSVESNGSSTATFPLRA
700 nM | NrCAM (domain or fragment) RRNKGGKYPVKEKEDAHADPEIQPMKEDDGTFGEYSDAEDHKPLKKGSRTPSDRTVKKEDSDDSLVDYGEGVNGQFNEDGSFIGQYSGKKEKEPAEGNESSEAPSPVNAMNSFV
1100 nM | SDDSLADYGGSVDVQFNEDGSFIGQYSG (domain or fragment) [L1CAM (construct of the ITC assay)]

— PMC9396398, “Crystal structure of Ankyrin-G in complex with a fragment of Neurofascin reveals binding mechanisms required for integrity of the axon initial segment” (The Journal of Biological Chemistry, 2022)
